Source: article PMC6487875 (Biochemistry, 2018)
Values joined by “and” are separate entries in the source; they are usually repeats but may differ in a detail not shown here. Equal values may be shown once.

B1: wild type glutamate oxaloacetate transaminase 1 (WT-GOT1) (enzyme, human, UniProt P17174-1 1-413, looked up)
chain: MAPPSVFAEVPQAQPVLVFKLTADFREDPDPRKVNLGVGAYRTDDCHPWVLPVVKKVEQKIANDNSLNHEYLPILGLAEFRSCASRLALGDDSPALKEKRVGGVQSLGGTGALRIGADFLARWYNGTNNKNTPVYVSSPTWENHNAVFSAAGFKDIRSYRYWDAEKRGLDLQGFLNDLENAPEFSIVVLHACAHNPTGIDPTPEQWKQIASVMKHRFLFPFFDSAYQGFASGNLERDAWAIRYFVSEGFEFFCAQSFSKNFGLYNERVGNLTVVGKEPESILQVLSQMEKIVRITWSNPPAQGARIVASTLSNPELFEEWTGNVKTMADRILTMRSELRARLEALKTPGTWNHITDQIGMFSFTGLNPKQVEYLVNEKHIYLLPSGRINVSGLTTKNLDYVATSIHEAVTKIQ
B2: GOT1 S256A mutant (enzyme, human, UniProt P17174-1 1-413, looked up)
chain: MAPPSVFAEVPQAQPVLVFKLTADFREDPDPRKVNLGVGAYRTDDCHPWVLPVVKKVEQKIANDNSLNHEYLPILGLAEFRSCASRLALGDDSPALKEKRVGGVQSLGGTGALRIGADFLARWYNGTNNKNTPVYVSSPTWENHNAVFSAAGFKDIRSYRYWDAEKRGLDLQGFLNDLENAPEFSIVVLHACAHNPTGIDPTPEQWKQIASVMKHRFLFPFFDSAYQGFASGNLERDAWAIRYFVSEGFEFFCAQAFSKNFGLYNERVGNLTVVGKEPESILQVLSQMEKIVRITWSNPPAQGARIVASTLSNPELFEEWTGNVKTMADRILTMRSELRARLEALKTPGTWNHITDQIGMFSFTGLNPKQVEYLVNEKHIYLLPSGRINVSGLTTKNLDYVATSIHEAVTKIQ
B3: GOT1 T110A mutant (enzyme, human, UniProt P17174-1 1-413, looked up)
chain: MAPPSVFAEVPQAQPVLVFKLTADFREDPDPRKVNLGVGAYRTDDCHPWVLPVVKKVEQKIANDNSLNHEYLPILGLAEFRSCASRLALGDDSPALKEKRVGGVQSLGGAGALRIGADFLARWYNGTNNKNTPVYVSSPTWENHNAVFSAAGFKDIRSYRYWDAEKRGLDLQGFLNDLENAPEFSIVVLHACAHNPTGIDPTPEQWKQIASVMKHRFLFPFFDSAYQGFASGNLERDAWAIRYFVSEGFEFFCAQSFSKNFGLYNERVGNLTVVGKEPESILQVLSQMEKIVRITWSNPPAQGARIVASTLSNPELFEEWTGNVKTMADRILTMRSELRARLEALKTPGTWNHITDQIGMFSFTGLNPKQVEYLVNEKHIYLLPSGRINVSGLTTKNLDYVATSIHEAVTKIQ

Target: the molecule itself
Assay: SEC

For B1, which “stoichiometry N” value is on record?
The value was 2 and 4.

How did the “stoichiometry N” value turn out when B2 was run?
Its value is 2.

B3 was tested. Which “stoichiometry N” value did it give?
The value was 2.
